Experimental data from patent US20240124607A1 (Merck Sharp & Dohme, published 2024).

T1: CEACAM5 N-A1-B1-His (human, UniProt P06731 35-322, limits assumed)
T1 sequence: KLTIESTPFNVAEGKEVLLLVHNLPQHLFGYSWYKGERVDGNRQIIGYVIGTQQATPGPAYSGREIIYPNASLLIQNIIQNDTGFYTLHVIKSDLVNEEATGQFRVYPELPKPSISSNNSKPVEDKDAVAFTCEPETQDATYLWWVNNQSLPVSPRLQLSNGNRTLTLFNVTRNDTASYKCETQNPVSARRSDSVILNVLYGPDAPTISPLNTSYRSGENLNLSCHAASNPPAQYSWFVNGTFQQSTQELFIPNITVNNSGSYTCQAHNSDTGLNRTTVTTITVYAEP

T2: soluble mouse Fc-human NKG2D dimer (human, UniProt P26718 78-216, limits assumed)
T2 construct: also called NKG2D-mFc; human NKG2D fused to a mouse Fc
T2 sequence (looked up): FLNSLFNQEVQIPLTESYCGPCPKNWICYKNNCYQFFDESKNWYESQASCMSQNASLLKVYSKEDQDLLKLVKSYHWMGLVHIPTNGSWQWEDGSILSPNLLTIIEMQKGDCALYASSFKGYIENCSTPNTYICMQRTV

T3: Cyno NKG2D-mFc (cynomolgus monkey, UniProt P61252 78-216, limits assumed)
T3 construct: also called cynomolgus NKG2D fused to a mouse Fc
T3 sequence (looked up): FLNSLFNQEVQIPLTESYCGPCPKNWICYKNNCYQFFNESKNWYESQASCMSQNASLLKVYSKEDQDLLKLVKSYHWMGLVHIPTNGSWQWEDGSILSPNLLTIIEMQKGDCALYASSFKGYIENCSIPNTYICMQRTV

T4: human CEACAM5 on cells (human, UniProt P06731 35-685)
T4 sequence: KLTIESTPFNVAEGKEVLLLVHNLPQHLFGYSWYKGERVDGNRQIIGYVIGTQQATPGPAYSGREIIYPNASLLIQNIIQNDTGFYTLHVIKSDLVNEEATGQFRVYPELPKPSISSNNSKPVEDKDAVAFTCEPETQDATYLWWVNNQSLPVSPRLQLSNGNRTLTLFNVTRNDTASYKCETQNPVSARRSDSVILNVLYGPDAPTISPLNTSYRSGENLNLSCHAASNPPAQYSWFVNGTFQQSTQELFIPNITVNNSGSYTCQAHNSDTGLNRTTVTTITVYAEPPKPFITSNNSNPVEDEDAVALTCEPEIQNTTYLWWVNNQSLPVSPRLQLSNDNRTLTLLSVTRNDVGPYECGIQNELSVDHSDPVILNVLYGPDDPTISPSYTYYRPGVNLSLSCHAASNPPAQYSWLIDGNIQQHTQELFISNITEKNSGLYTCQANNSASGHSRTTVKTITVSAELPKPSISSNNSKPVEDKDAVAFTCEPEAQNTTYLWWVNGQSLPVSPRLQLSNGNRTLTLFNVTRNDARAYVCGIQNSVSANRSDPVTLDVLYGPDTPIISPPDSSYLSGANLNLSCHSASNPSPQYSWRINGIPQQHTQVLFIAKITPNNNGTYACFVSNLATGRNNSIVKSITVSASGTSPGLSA

T5: human CEACAM8 on Ba/F3 cells (human, UniProt P31997 35-320)
T5 construct: whole, on cells
T5 sequence (looked up): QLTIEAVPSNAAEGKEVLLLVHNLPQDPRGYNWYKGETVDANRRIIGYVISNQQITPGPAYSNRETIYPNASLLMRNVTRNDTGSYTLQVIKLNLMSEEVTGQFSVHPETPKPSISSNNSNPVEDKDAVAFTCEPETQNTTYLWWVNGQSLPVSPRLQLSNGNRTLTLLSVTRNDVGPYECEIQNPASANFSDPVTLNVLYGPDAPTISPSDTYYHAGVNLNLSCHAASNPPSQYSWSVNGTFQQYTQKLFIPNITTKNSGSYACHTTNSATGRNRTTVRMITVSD


Legend:
CEACAM5 N-A1-B1-His = target: T1, CEACAM5 N-A1-B1-His; test: SPR, Fab capt, 25C
Experimental: If the protein domain was an Fc fusion, AB0411, AB0466, AB0264, or AB0621 were captured using an anti-human Fab antibody (Cytiva, #28958325) immobilized onto a CM5 chip. The various hCEACAM5 protein domains (N-term, A1-B1, A2, B2, A3, or B3) were titrated over the captured TriNKETs at 50 μL/min for 180 sec of association and 300 sec of dissociation. The assay was run at 25° C. in HBS-EP+ running buffer, pH 7.4. The surface of the CM5 chip was regenerated using […] glycine pH 2.1.

[1] = target: T2, soluble mouse Fc-human NKG2D dimer; test: SPR, NKG2D-mFc captured, 37C, pH 7.4
Experimental: (§1) Binding to NKG2D was assessed by SPR using a mouse Fc capture kit (Cytiva, #BR100838) immobilized onto a CM5 chip. Human and cynomolgus NKG2D fused to a mouse Fc were captured and AB0411, AB0466, or AB0621 was titrated from 600 nM.

Cyno NKG2D-mFc = target: T3, Cyno NKG2D-mFc; test: SPR, NKG2D-mFc captured, 37C, pH 7.4
Experimental: as §1

human CEACAM5 on cells [2] = target: T4, human CEACAM5 on cells; test: cell-based or functional assay
[3] = target: T5, human CEACAM8 on Ba/F3 cells; test: flow cytometry on Ba/F3 cells expressing human CEACAM8, fold over background (FOB), 5-fold dilutions from 1600 nM
Experimental: To examine the binding specificity of the TriNKETs to CEACAM5 compared to other CEACAM family members, Ba/F3 cells were engineered to express one of human CEACAM1, CEACAM6, CEACAM8, or cynomolgus CEACAM5. CEACAM5 TriNKETs were evaluated by flow cytometry starting at 1600 nM followed by 7 5-fold dilutions.

human CEACAM5 on cells [4] = target: T4, human CEACAM5 on cells; test: flow cytometry, LoVo cells

Kd (CEACAM5 N-A1-B1-His) [nM] | kon (CEACAM5 N-A1-B1-His) [M⁻¹ s⁻¹] | Kd [1] [nM] | koff [1] [s⁻¹] | kon [1] [M⁻¹ s⁻¹] | Kd (Cyno NKG2D-mFc) [nM] | koff (Cyno NKG2D-mFc) [s⁻¹] | kon (Cyno NKG2D-mFc) [M⁻¹ s⁻¹] | EC50 (nM), NK lysis of HPAF-II (DELFIA) (human CEACAM5 on cells [2]) [nM] | EC50 (nM), NK lysis of LS-174T (DELFIA) (human CEACAM5 on cells [2]) [nM] | EC50 (nM), NK lysis of SK-CO-1 (DELFIA) (human CEACAM5 on cells [2]) [nM] | EC50 (nM), NK lysis of ZR-75-30 (DELFIA) (human CEACAM5 on cells [2]) [nM] | binding result [3] | EC50 (human CEACAM5 on cells [4]) [nM] | Max FOB (human CEACAM5 on cells [4]) [fold over background] | Binder | Max Killing (%), HPAF-II (human CEACAM5 on cells [2]) [%] | Max Killing (%), LS-174T (human CEACAM5 on cells [2]) [%] | Max Killing (%), SK-CO-1 (human CEACAM5 on cells [2]) [%] | Max Killing (%), ZR-75-30 (human CEACAM5 on cells [2]) [%]
1.8 | 350000 | 570 | 0.14 | 320000 | 520 | 0.12 | 320000 | 0.72 | 1.87 | 1.02 | 1.58 | no binding (tested: 1600 nM) | – | – | AB0621 F3' CEACAM5 TriNKET (bispecific antibody, human IgG1, kappa) DIVMTQSPDSLAVSLGERATINCKSSHSLLYGNFQNNYLAWYQQKPGQPPKLLIYWASTRESGVPDRFSGSGSGTDFTLTISSLQAEDVAVYYCQQYYSYPYTFGCGTKLEIKGGGGSGGGGSGGGGSGGGGSQVQLVQSGAEVKKPGASVKVSCKASGYTFTAYTIHWVRQAPGQCLEWMGYINPSSGYTEYNQKFKDRTTLTADTSISTAYMELSRLRSDDTAVYYCTREGGLLWFDYWGQGTLVTVSSGSDKTHTCPPCPAPELLGGPSVFLFPPKPKDTLMISRTPEVTCVVVDVSHEDPEVKFNWYVDGVEVHNAKTKPREEQYNSTYRVVSVLTVLHQDWLNGKEYKCKVSNKALPAPIEKTISKAKGQPREPRVYTLPPCRDELTKNQVSLTCLVKGFYPSDIAVEWESNGQPENNYKTTPPVLVSDGSFTLYSKLTVDKSRWQQGNVFSCSVMHEALHNHYTQKSLSLSPG heavy: EVQLVESGGGLVKPGGSLRLSCAASGFTFSSYSMNWVRQAPGKGLEWVSSISSSSSYIYYADSVKGRFTISRDNAKNSLYLQMNSLRAEDTAVYYCARGAPIGAAAGWFDPWGQGTLVTVSSASTKGPSVFPLAPSSKSTSGGTAALGCLVKDYFPEPVTVSWNSGALTSGVHTFPAVLQSSGLYSLSSVVTVPSSSLGTQTYICNVNHKPSNTKVDKKVEPKSCDKTHTCPPCPAPELLGGPSVFLFPPKPKDTLMISRTPEVTCVVVDVSHEDPEVKFNWYVDGVEVHNAKTKPREEQYNSTYRVVSVLTVLHQDWLNGKEYKCKVSNKALPAPIEKTISKAKGQPREPQVCTLPPSRDELTENQVSLTCLVKGFYPSDIAVEWESNGQPENNYKTTPPVLDSDGSFFLYSWLTVDKSRWQQGNVFSCSVMHEALHNHYTQKSLSLSPG light: DIQMTQSPSSVSASVGDRVTITCRASQGISSWLAWYQQKPGKAPKLLIYAASSLQSGVPSRFSGSGSGTDFTLTISSLQPEDFATYYCQQGVSFPRTFGGGTKVEIKRTVAAPSVFIFPPSDEQLKSGTASVVCLLNNFYPREAKVQWKVDNALQSGNSQESVTEQDSKDSTYSLSSTLTLSKADYEKHKVYACEVTHQGLSSPVTKSFNRGEC | 29.8 | 42.6 | 80.9 | 29.8
1.1 | 410000 | – | – | – | – | – | – | – | – | – | – | no binding (tested: 1600 nM) | 22.1 | 14 | AB0264 F3' CEACAM5 TriNKET (bispecific antibody, human IgG1, kappa) DIVMTQSPDSLAVSLGERATINCKSSHSLLYGNFQNNYLAWYQQKPGQPPKLLIYWASTRESGVPDRFSGSGSGTDFTLTISSLQAEDVAVYYCQQYYSYPYTFGCGTKLEIKGGGGSGGGGSGGGGSGGGGSQVQLVQSGAEVKKPGASVKVSCKASGYTFTAYTIHWVRQAPGQCLEWMGYINPSSGYTEYNQKFKDRTTLTADTSIPTAYMELSRLRSDDTAVYYCTREGGLLWFDYWGQGTLVTVSSGSDKTHTCPPCPAPELLGGPSVFLFPPKPKDTLMISRTPEVTCVVVDVSHEDPEVKFNWYVDGVEVHNAKTKPREEQYNSTYRVVSVLTVLHQDWLNGKEYKCKVSNKALPAPIEKTISKAKGQPREPRVYTLPPCRDELTKNQVSLTCLVKGFYPSDIAVEWESNGQPENNYKTTPPVLVSDGSFTLYSKLTVDKSRWQQGNVFSCSVMHEALHNHYTQKSLSLSPG heavy: EVQLVESGGGLVKPGGSLRLSCAASGFTFSSYSMNWVRQAPGKGLEWVSSISSSSSYIYYADSVKGRFTISRDNAKNSLYLQMNSLRAEDTAVYYCARGAPIGAAAGWFDPWGQGTLVTVSSASTKGPSVFPLAPSSKSTSGGTAALGCLVKDYFPEPVTVSWNSGALTSGVHTFPAVLQSSGLYSLSSVVTVPSSSLGTQTYICNVNHKPSNTKVDKKVEPKSCDKTHTCPPCPAPELLGGPSVFLFPPKPKDTLMISRTPEVTCVVVDVSHEDPEVKFNWYVDGVEVHNAKTKPREEQYNSTYRVVSVLTVLHQDWLNGKEYKCKVSNKALPAPIEKTISKAKGQPREPQVCTLPPSRDELTENQVSLTCLVKGFYPSDIAVEWESNGQPENNYKTTPPVLDSDGSFFLYSWLTVDKSRWQQGNVFSCSVMHEALHNHYTQKSLSLSPG light: DIQMTQSPSSVSASVGDRVTITCRASQGISSWLAWYQQKPGKAPKLLIYAASSLQSGVPSRFSGSGSGTDFTLTISSLQPEDFATYYCQQGVSFPRTFGGGTKVEIKRTVAAPSVFIFPPSDEQLKSGTASVVCLLNNFYPREAKVQWKVDNALQSGNSQESVTEQDSKDSTYSLSSTLTLSKADYEKHKVYACEVTHQGLSSPVTKSFNRGEC | – | – | – | –
